Substrate: C/C=C/C(=O)SCCNC(=O)CCNC(=O)[C@H](O)C(C)(C)COP(=O)(O)OP(=O)(O)OC[C@H]1O[C@@H](n2cnc3c(N)ncnc32)[C@H](O)[C@@H]1OP(=O)(O)O
Assay: Kinetic assay of dehydratase activity: hydration of crotonyl-CoA monitored at 235 nm, fit to Michaelis-Menten equation
Type: biochemical, Photobacterium profundum
Settings: other: crotonyl-CoA, hydration reaction, substrate 0-600 μM, 25 mM Tris, 150 mM NaCl, 10% glycerol, pH 8.0
Method: For the cloning of fragments into pET200TOPO SEQ.ID15, the amplified DNA was gel purified using a Gel Extraction Kit and incubated with pET200TOPO. The resulting clones were selected in LB-agar containing kanamycin (100 μg/mL). All resistant clones were introduced into E. coli strain SEQ.ID16 BL21-DE3-Codon Plus-RIL and grown in liquid LB at 37° C. until the OD600=0.4 at which time the temperature was decreased to 22° C.° until the OD600=0.6 at which time protein expression was induced with 1 mM IPTG. […]
Dehydratase activity was measured in a hydration assay by using Crotonyl-CoA and Crotonyl-NAC as substrates. […] The values for the absorbance slope (given in mAU/min) were converted to units of μmole of product per minute by using the following equation: μmole of product/min=[Slope/ε×b]×Voltotal (Eq1)
in which the slope is given by the instrument in units of milliabsorbance (mAU) per minute, b is the path length measured to be 0.89 cm for a Voltotal=200 μl in our 96-well plates. The ε is the molar extinction coefficient resulting from the loss of a double bond as defined by the difference in absorbance between crotonyl-CoA and β-hydroxybutyryl-CoA at a particular wavelength. The extinction coefficient was calculated to be ε=969.9 M^−1 cm^−1 for the reaction monitored at 260 nm and ε=790.7 M^−1 cm^−1 for the reaction monitored at 235 nm. […]

B1: DH1-DH2-UMA (His-tagged dehydratase tetradomain fragment, I1096-N-Term, of pfaC PUFA synthase from Photobacterium profundum; pfaC SEQ.ID17, GenBank AF409100.1; … (protein)
chain: IRKPCIWDYEDLVEYAEGDIANVFGPDYAVIDNYSRRVRLPTTDYLLVSRVTKLDATMLEYKPSTMTTEYDIPVDAPYLVDGQIPWAVAVESGQCDLMLISYLGIDFENKGERVYRLLDCTLTFLGDLPRGGDTLRYDISINNFARNGDTLLFFFSYECFVGDKMVLKMDNGCAGFFTDEELSDGKGVIRTEDEIKSRNLAVKQRFNPLLHCQKTQFDYQTLHNLLDANIAGCFGESHISDRHQPSLCFSSDKFMMIEQISHVDPQGGTWGLGLIEGHKQLEADHWYFPCHFKDDSVMAGSLMAEGCGQLLQFFMMYLGMHTQVENGRFQPLENAPQQVRCRGQVLPQSAVLTYRMEVTEIGLSPRPYAKANIDILLDGKVVVDFQNLGVMIKEESECTRYLGSSDFDSASLASSSYVAESAPAQADVITPVEAPISQQASANAPLMAQIPDLNTAPNKGVIPLQHIEAPIVPDYQNRTPDTVPFTPYHMFEFATGDIEKCFGPDFSIYRGMIPPRTPCGDLQLTTRVIEVNGTRGDFKTPSSCIAEYEVPENAWYFDENSHSSLMPYSVLMEISLQPNGFISGYMGTTLGFPGLELFFRNLDGSGKMLRNVDLRGKTIVNDSRLLSTVMMGTNIVQSFSFELSTDGVPFYEGTAVFGYFKGAALKDQLGLDNGQVTYPWHVNNNRTPDVSINLLDKESRYFNAPLSATGEAQPHYQLAGGRLNFIDKVDITSDGGKAGLGYLYAERTIDPSDWFFQFHFHQDPVMPGSLGVEAIIELMQTYALNKDLGAGFRSPKFGQIQSEVKWKYRGQINPLNKQMSLDVHITAIKDEDGKRIIVGDANLSKDGLRIYEVKDIAICIEEA
B1 gave a Km of 156 µM and a Vmax of 0.0001 μmol product/min.

— patent publication US10385327B2, “Enhanced E. coli for the production of fatty acids and method of producing the same” (University of Puerto Rico, priority 2012, dated 2019)
